Experimental data from the nanobody polyreactivity screen of Harvey et al. (2022).

test: yeast display, Sf9 membrane polyspecificity reagent, FACS + sequencing; frameworks hold sequencing errors
Procedure, shortened: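 Synthetic nanobody libraries on Saccharomyces cerevisiae BJ5465 were galactose-induced for 36–48 hours, stained 1 hour at 4 °C with 10% biotinylated, detergent-solubilized Sf9 membrane reagent and enriched on streptavidin microbeads. FACS then separated cells into low and high (top ~1%) gates by anti-HA (expression) and streptavidin (reagent binding) fluorescence. Genes were colony-PCR amplified, MiSeq 2 × 250 sequenced and CDR-length filtered. A clone's polyreactivity label is that of its gate of origin.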

Row | Sequence | polyreactivity (PSR sort gate)
1 | QVQLVESGGGLVRAGGSLRLSCAASGSTFPFYAMGWYRQAPGKERELVAAITSGGSTYADSVKGRFTISRDNAKNTVYFQMNSLKAEVTAVYYCAASWPRWWRFGYWGQGTQVTVSS | low polyreactivity
2 | QVQLVESGGGLYQAGGSLRLSCAASGIIFKSYLMGWDRQAPGKEREFVARITYRGGSTYYADSVKGRFTISRDNAKYTFNLQMNSLNQEDTAVYYCIARVRRRRYKYDYWGQGTQVTVST | high polyreactivity
3 | QVQLVESGGGLYQARGSLRLSCAASGSIFLDNAKGWYRQAPGKERELVAAISSGGNTNYADSVKGRFTISRDNAKNTVYLQINSLKPEDTAVYYCAADPTKWHYYLPRYYYWGQGTQVTLSS | low polyreactivity
4 | QVQLVESGGGRVQAGGSLRLSCAASGITFDANAMGWDRQAPGKERELVARISSGGSTNYADSVKGRFTISRDNAKNTVYLQMNSLKPEDTAVYYCAKSYQYGFDYWGQGTQVNVSS | low polyreactivity
5 | QVQLVESGGGRVQAGGSLRLSCAASGSIFFIYAMGWDRQAPSKEREFVAAISYGGGSTYYADSVKGRFTISRDNAKNTVYLQMNSLKPEDTAVYYCNADVPKSLLLYYPWGYGYWGQGTQVNVSS | low polyreactivity
6 | QVQLVESGGGSVQAGGSLRLSCAASGFTIRTYAMGWYRQAPGKERELVAAITSSGSSTYYAYSVKGRFTISRDNAKNTVYLQMNSLKPEDTAVYYCAADAPRSYRFGYWGQGTQVTVSA | high polyreactivity
7 | QVQLVESGGGVVQAGGSLRISCAATGFIFRWYAMGWYIQAPGKERELVASINWSGSRTNYADPVKGRFTISRDNAKNTVYLQMNSLKPEDTAVYYCATYGTTSGYDSWGQGTQVTVSS | high polyreactivity
8 | QVQLVESGGGVVQAGGSLRLSCAASGFIFHQNAMGWYRPAPGKERELVAAITRSGTSTYYADSVKGRFTISRDYAKNTVYLQMYSLKPEDTAVYYCANDPVRVGRFGYEYWGQGTQVTVSS | low polyreactivity
9 | QVQLVESGGGVVQAGGSLRLSCAASGFIFPLYTMGWSRQAPGKERELVAAITGSGGSTYYADSVKGRFTISRDNAKNTVYLQMNSLKPEDTAVYYCAKDYTYGMDWGQGTQVTVSS | low polyreactivity
10 | QVQLVESGGGVVQAGGSLRLSCAASGFIFYYNTMGWYRQAPGKERELVASMTWSGDTTYYADSVKGRFTISRDNAKNTVYLQMNSLTPEDTAVYYCAAVHYDPYRRYDYWGQGTQVTVSS | low polyreactivity
11 | QVQLVESGGGVVQAGGSLRLSCAASGFTPGNVMGGYRQAPGKERELVAAISWTGDSTYYAASVKGRFTISRDNAKNTVYLQMNSLKPEDTAVYYCAADGVPGRALDYEYWGQGTQVTVSS | high polyreactivity
12 | QVQLVESGGGVVQAGGSLRLSCAASGGIILEYVMGWYRQARGEERELVAAISWSGTSTYYADSVKGRFTISRDNAKNTVYLQMNSLKPEDTAVYYCAKSEGVYSGWYGVDDYDYWGQGTQVTVSS | low polyreactivity
13 | QVQLVESGGGVVQAGGSLRLSCAASGINFGRNTMGWYRQAPGKERELVAAIDSGGNTYADSVKGRFTISRDNAKNTVYLQMNSLKPEDTAVYYCAVDGGEFSSYGYWGQGTQVTVSS | low polyreactivity
14 | QVQLVESGGGVVQAGGSLRLSCAASGITFQYYDMGWFRPAPGKERELVAAISWSTDMTYADSVKGRFTISRDNAKNTDYLQMNSLKPEDTAVYYCAASTYEYTSYDYWGQGTQVTVSS | low polyreactivity
15 | QVQLVESGGGVVQAGGSLRLSCAASGLIFSPYAMGWYRPAPGKERELVAVITRSGGRTYYADSVKGRFTISRDNAKNTVYLQMNSLKPEDTAVYYCAATPKSWSSSTRDYWGQGTQVTVSS | high polyreactivity
16 | QVQLVESGGGVVQAGGSLRLSCAASGLTFKFYAMGWYIQAPGKERELVAAINRSGSSTYYADSVKGRFTISRDNAKNTVYLQMNSLKPEDTAVYYCAKDSFTSTRQYDYWGQGTQVTVSS | low polyreactivity
17 | QVQLVESGGGVVQAGGSLRLSCAASGNIFFGNAMGWYRQAPGKERELVAAITKRGGSTYYADSVKGRFTISRDNAKNTVYLQMNSLKPEDTAVYYCAAVSYSKRTWSMNYWGQGTQVTVSS | high polyreactivity
18 | QVQLVESGGGVVQAGGSLRLSCAASGRIFLKYTMGWYRQAPGKARELVAAISRGGSTYYADSVKGRFTISRDNAKNTVYLQMNSLKPEDTAVYYCAATSYRRTGYNYWGQGTQVTVSS | high polyreactivity
19 | QVQLVESGGGVVQAGGSLRLSCAASGRIFRINGMGWYRQAPGKEREFVAAITSGGGTYYADSVKGRFTITRDNAKNTVYLQMNSLKPEDTAVYYCAAPSYRTRYYYWGQGTQVTVSS | high polyreactivity
20 | QVQLVESGGGVVQAGGSLRLSCAASGRIIKSYAMGWYRQAPGKERDLVAAITRGGRTSYADSVKGRFTISRDNAKNTVYLQMNSLKPEDTAVYYCADDGGWRYHPFSSLFDYWGQGPQVTVSS | low polyreactivity
21 | QVQLVESGGGVVQAGGSLRLSCAASGRIISYNAMGWYRQAPGKERELVAAISWGGGSTYYADSVKGRFTISRDNAKNTVYLQMNSLKPEDTAVSYCAKGWYRIKRNDYWGQGTQVTVSS | low polyreactivity
22 | QVQLVESGGGVVQAGGSLRLSCAASGRNFGHYTMGWYRQAPGIERELVARISQSGGSTRYADSVKGRFTISRDNAKNTVYLQMNSLKPEDTAVYYWATYRRHFFYFAIPGYSSAYEYSGQGTQVTVSS | high polyreactivity

Row | Sequence | polyreactivity (PSR sort gate)
23 | QVQLVESGGGVVQAGGSLRLSCAASGRTFPGNAMGWYRQAPGKERELVASITWSTGSTYYADSVKGRFTISRDNAKNTVYLQMNSLKPEDTAVYYCAADQSVRSYQYSVHRGYWGQGTQVTVSS | high polyreactivity
24 | QVQLVESGGGVVQAGGSLRLSCAASGRTFPGYAMGWYRQAAGKERELVAAITRGSTNYADSVKGRFTISRDNAKNTVYKQMNSLKPEATAVYYCAADFQYYFFWEEDYWGHGTQVTVSS | low polyreactivity
25 | QVQLVESGGGVVQAGGSLRLSCAASGRTFYRYAMGWYRQAPGKERELDAAISWRGGSTRYADSVKGRFTISRDNAKNTVYFQMNSLKPEDTAVYSCATRSTYWGWSSYGMDHWGQGTQVTVSS | high polyreactivity
26 | QVQLVESGGGVVQAGGSLRLSCAASGSIFDGYARGWYRQAPGKERELVAAITRDGGSTHYADSVKGRFTISRDNAKNTVYLEMNSLKPEDTAVYYCASRDHAFRYYRNPFKGKYDYWGQGTQVTVSS | low polyreactivity
27 | QVQLVESGGGVVQAGGSLRLSCAASGSIFISNAMGWYRQAPGTERELVAAITLTGTSTYYADSVKGRFTISRDNAKNTVYLQMNSLKPEDTAVYYCAAEYYYIVTYDFGYWGQGTQVTVSS | low polyreactivity
28 | QVQLVESGGGVVQAGGSLRLSCAASGSIFSLYAMGWYRQAPGNERELVDAISSSGTSTYYADSVKGRFTISRDNAKNSVYLHMNSLKPEDTAVYYCNAYRRRATYNGDYWGQGTQVTVSS | high polyreactivity
29 | QVQLVESGGGVVQAGGSLRLSCAASGSTFFYYAMGWYRQAPGKERELVATIRGSAGRTYYADSVKGRFTISRDHAKYTVYLQMNCLKPEDTAVYYCARRYWPGSAYWIYDYWGQGTQVTVSS | high polyreactivity
30 | QVQLVESGGGVVQAGGSLRLSCAASGSTFGYYAMGWYRQAPGKERELVAAISQGAGRTYFADSVKGRFTISRDIAKNTVYLQMNSLKPEDTAVYYCAGSVTVHRWAYGYCGQGTQVTVSS | high polyreactivity
31 | QVQLVESGGGVVQAGGSLRLSCAASGSTFYANAMGWSRQAPGKERELVAAISSGGSTYYADSVKGRFTISRDNAKNTVYLQMNSLKPDDTAVYYCAKPFYSYRYGFGYWGQGTQVTVSS | low polyreactivity
32 | QVQLVESGGGVVQAGGSLRLSCAASGSTFYPNAMGWYRQAPGKERELVAAISRGTRTKYADSVKGRFTISRDNAKNTVYLQMNSLKPEDTAVYYCAADTGTGLDWGQGTQVTVSS | high polyreactivity
33 | QVQLVESGGGVVQAGGSLRLSCAATGSIFISYDTGLYRQAPGKESELVAAITWSGDSTYYADSVKARFTISRDNAKNSVYLQMNSLKPEDTAVYYCAADWYFRNQRGYYWGQGTQVTVSS | low polyreactivity
34 | QVQLVESGGGVVQAGGSLRLSCAAYGFIYKQNAMGWYRQAPGKERELVATITRGGDTKYADSVKGRFTISRDNAKNTVYLLMNSLKPEDTAVEYCAARYTPSSSIYRFYNFYGYDYWGQGTQVIVSS | high polyreactivity
35 | QVQLVESGGGVVQAGGSLRLSGAASGSTLLRNAMGWYRQAPGKAWELVAVITYSGGSTYYADSVKGRFTISRDQAKNTVYLQMNSLIPEDTAVYYCAADKWYYVRYATDAYSKFDYWGQGTQVTVSS | low polyreactivity
36 | QVQLVESGGGVVQAGGSLRLSSAASGRIFQAYAMGWYRQAPGKEWELVAAISRSGGGTYYSDSVKGRFTISRDYAKNTVYLQMNSLKPEDTAVYYCNARGSTARGRGYWGQGTQVTVTS | high polyreactivity
37 | QVQLVESGGGVVQAGRSLRLSCAASGSPFAYNSMGWYRKAPGKERELVAAISWRGTRTYYADSVKGRFTISRDTAKNTVNLQMNSLKPEDTAVYYCATKYGISYDYWGQGTHVTVSS | high polyreactivity
38 | QVQLVESGGGVVQAGVTLRLSCAASGRIFHYNAMGWYRQAPGKEREMVAAFTWIGGSTYADSVKGRFTISRDNSKNSVYLLMNSLKPEDTAVYYFNARYIYRFDFWGQGTQVTVSS | low polyreactivity
39 | QVQLVESGGGVVQARGSLRLSCAASGRIFDNAMGWYRQAPGKERELVAAISGGSTYYADSVKGRFTISRDNAKNTVYLQMHSLKPEDTAVYYCNTDPLGRTVVYGGDDYWGQGTQVTVSS | low polyreactivity
40 | QVQLVESGGLLVKAGGSLRLSCAASGSIFYLYVMGWYRQAPGIERELVAANTWSGGSTYYADSVKGRFTISRDNAKNTVYLQMNILIPEDTAVYYCAARGYVPYVKYDYWGQGTQVTVSS | high polyreactivity
41 | QVQLVESGGLLVQGGVSLRLSCAASGSTLYIYAMGWYRQAPGKERELVAANTWSGGRTFYADSVKGRFTISRDNAKNTVSLQMNSLTPEDTAVYYCAARILSDKTGSRYYYWGQGTQVTVSS | high polyreactivity
42 | QVQLVESGGRIVQAGGSLRLSCAASGSILNNYAMGWYRQAPGKERELVAAISSSGGTNYADSVKGRFTISRDNEKNTVFLQMNSLKPEDTAVYYCNADVLDGGYDYWGQGTQVTVSS | low polyreactivity
43 | QVQLVESGGRLLQAGGSLRLSCAASGSIFVGYAMGWYRQAPGKEWELVAAISASGGRTYYADSVKGRFTISRDNAKTTVYLQMNSLKPEDTAVYYCATDDYWGRGTQVTVSS | high polyreactivity
